Experimental data published in US20220251173A1.
Residue numbers refer to the chain shown, from its start.

B1: D3 DY (antibody, human IgG1, kappa, V domains shown)
VH: EVQLQESGPGLVKPSQTLSLTCAVSGSSITHGYHYNWIRQFPGNKLEWIGYIHYDGSVLYNPSLENRVTITRDTSKNQFFLKLSSVTAEDTAKYYCASGFDHWGQGTTLTVSS
VL: DVVMTQSPLSLPVTLGEPASISCRSSQSLVHSYGDNYLHWYLQKPGQSPKLLIYKVSNRFSGVPDRFSGSGSGTDFTLKISRVETEDLGVYYCSQNTHVPYTFGGGTKLEIKR
B2: C32 (antibody, human IgG1, kappa, V domains shown)
VH: B1 VH with H31Y, G32R, Y35W, H53N, L59H
VL: B1 VL with N36T, V99L
B3: D5 DY (antibody, human IgG1, kappa, V domains shown)
VH: B1 VH with Y35W
VL: B1 VL
B4: D4 DY (antibody, human IgG1, kappa, V domains shown)
VH: B1 VH with Y35W
VL: B1 VL with V99L

Legend:
[1] = target: hepatitis B virus surface antigen (HBsAg) (hepatitis B virus); experiment: ELISA on commercial HBsAg plate, purified antibody, incubation and washes at pH 7.4, GAH-HRP, OD450/630
[2] = target: hepatitis B virus surface antigen (HBsAg) (hepatitis B virus); experiment: ELISA on commercial HBsAg plate, ratio of EC50 at pH 6.0 to pH 7.4
[3] = target: hepatitis B virus surface antigen (HBsAg) (hepatitis B virus); experiment: ELISA on commercial HBsAg plate, pH 7.4, quantified transfection supernatant
[4] = target: hepatitis B virus surface antigen (HBsAg) (hepatitis B virus); experiment: ELISA on commercial HBsAg plate, wash/incubation at pH 6.0, quantified transfection supernatant

| Binder | EC50 (read off the curve) [1] [ng/mL] | EC50(pH 6.0)/EC50(pH 7.4) [2] | EC50 [3] [µg/mL] | EC50 [4] [µg/mL] |
| --- | --- | --- | --- | --- |
| B1 | 50 | – | – | – |
| B2 | – | 1.69 | 1.33 | 2.25 |
| B3 | 40 | – | – | – |
| B4 | 60 | – | – | – |
